# Results from article PMC10359603.
# Test system: 6H-MBP-FseA (Mesorhizobium japonicum R7A (ICEMlSymR7A)?)
# Assay: EMSA
# Details: dimer concentration 4-130 nM; Hill slope fit, n=3; FseA EMSA: 10 mM Na phosphate pH 6.35, 220 mM NaCl, 6% glycerol, 1 mM DTT, 0.01 ug/ul poly(dI.dC), 0.1 ug/ul herring sperm DNA, 0.1-0.19 ug/ul BSA, 5 nM probe …
row,Substance,Kd
1,PrdfS FseA-box probe,30 nM

# Target: FseA (wild type, bacterial two-hybrid)
# Assay: bacterial two-hybrid
# Details: not given
row,Substance,percent of parent (% of wild-type QseM)
1,"QseM (wild type, bacterial two-hybrid) R28A",> 90
2,"QseM (wild type, bacterial two-hybrid) W71A",< 10
3,"QseM (wild type, bacterial two-hybrid) H22A",> 90
4,"QseM (wild type, bacterial two-hybrid) R57A",> 90
5,"QseM (wild type, bacterial two-hybrid) L29A",< 10
6,"QseM (wild type, bacterial two-hybrid) D31A",< 10
7,"QseM (wild type, bacterial two-hybrid) E56A",> 90
8,"QseM (wild type, bacterial two-hybrid) R68A",< 10

# Target: QseM (wild type, bacterial two-hybrid)
# Assay: bacterial two-hybrid
# Details: not given
row,Substance,percent of parent (% of wild-type FseA)
1,"FseA (wild type, bacterial two-hybrid) R37A",< 10
2,"FseA (wild type, bacterial two-hybrid) G214",> 90
3,"FseA (wild type, bacterial two-hybrid) W32A",> 90
4,"FseA (wild type, bacterial two-hybrid) R219A",> 90
5,"FseA (wild type, bacterial two-hybrid) D210A",> 90
6,"FseA (wild type, bacterial two-hybrid) R36A",> 90

# Target: 6H-MBP-FseA (Mesorhizobium japonicum R7A)
# Assay: SEC; HiLoad 16/600 Superdex 200; 50 mM Na2HPO4/NaH2PO4 pH 6.35, 10% glycerol, 500 mM NaCl; apparent mass from the elution volume
# Details: not given
row,Substance,stoichiometry N
1,6H-MBP-FseA (natural protein),2

# Target: FseA_(1–55) (Mesorhizobium japonicum R7A)
# Assay: two-hybrid; Bacteriomatch II bacterial two-hybrid in E. coli; growth on selective medium with 5 mM 3-amino-1,2,4-triazole; strength as CFU/ml on selective against non-selective medium
# Details: not given
row,Substance,interaction strength relative to wild-type FseA
1,"QseM (wild type, bacterial two-hybrid) (natural protein)",40%
